Values belong to the binder of their own block, whether it stands above or below them.
Biological target: Recombinant human CD38 extracellular domain (amino acids 43–300, hCD38-ECD) (human, UniProt P28907 43-300, biotin (EZ-Link NHS-PEG4-biotin) for panning and for capture on the SA biosensor; not said for the cross-linking)
Test: BLI

koff: 0.00012 s⁻¹
B1: high-affinity anti-CD38 antibody 028 (scFv) (scFv, V domains shown)
VH: QVQLVQSGAEVKKPGSSVKVSCKAFGGTFSSYAISWVRQAPGQGLEWMGRIIRFLGIANYAQKFQGRVTLIADKSTNTAYMELSSLRSEDTAVYYCAGEPGERDPDAVDIWGQGTMVTVSS
VL: DIQMTQSPSSLSASVGDRVTITCRASQGIRSWLAWYQQKPEKAPKSLIYAASSLQSGVPSRFSGSGSGTDFTLTISSLQPEDFATYYCQQYNSYPLTFGGGTKVEIK

koff: 0.0034 s⁻¹
B2: anti-CD38 scFv antibody RP02 (scFv, V domains shown)
VH: PAQLVESGPGLVKPSGTLSLTCAVSGGSISSSNWWSWVRQPPGKGLEWIGEIYHSGSTNYNPSLKSRVTISVDKSKNQFSLKLSSVTAADTAVYYCAREDYYYYMDVWGKGTTVTVQS
VL: QSVLTQPPSVSAAPGQKVTISCSGSSSNIGNNYVSWYQQLPGTAPKLLIYDNNKRPSGIPDRFSGSKSGTSATLGITGLQTGDEADYYCGTWDSSLSAGVFGGGTKLTVL

Reference: article PMC7967050 (2021)
